Data as given in publication PMC4822050 (2016).
Residue numbers refer to the chain shown, from its start. Each block holds one binder with its values, some of them ahead of it. Non-standard residues stand in square brackets, D forms with d. No end group written: not given here. pS = N[C@@H](COP(=O)(O)O)C(=O)O

T1: SRA–Spacer of UHRF1 (residues 414–674) (human, UniProt Q96T88 414-674)
T1 chain: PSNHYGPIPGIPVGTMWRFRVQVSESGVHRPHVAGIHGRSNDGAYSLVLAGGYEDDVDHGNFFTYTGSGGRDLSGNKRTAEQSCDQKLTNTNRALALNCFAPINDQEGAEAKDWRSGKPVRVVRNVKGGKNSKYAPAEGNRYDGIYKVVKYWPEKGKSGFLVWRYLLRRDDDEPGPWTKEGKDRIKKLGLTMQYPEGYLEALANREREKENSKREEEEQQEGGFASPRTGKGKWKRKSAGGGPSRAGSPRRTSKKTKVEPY

T2: Spacer^Δ660–664 (human, UniProt Q96T88 587-674, Δ660–664)
T2 sequence: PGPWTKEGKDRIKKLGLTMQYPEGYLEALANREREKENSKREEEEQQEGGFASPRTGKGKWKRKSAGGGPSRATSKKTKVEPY

T3: Spacer^Δ670–674 (human, UniProt Q96T88 587-674, Δ670–674)
T3 sequence: T2 sequence with T74G, K76P, K77R, T78R, K79T, V80S, E81K, P82K, Y83T

T4: Spacer^Δ650–654 (human, UniProt Q96T88 587-674, Δ650–654)
T4 sequence: T2 sequence with K64G, S65P, A66S, G67R, G68A, P70S, S71P, A73R

T5: Spacer^Δ665–669 (human, UniProt Q96T88 587-674, Δ665–669)
T5 sequence: T2 sequence with T74G, K76P, K77R, T78R

T6: Spacer^Δ642–651 (human, UniProt Q96T88 587-674, Δ642–651)
T6 sequence: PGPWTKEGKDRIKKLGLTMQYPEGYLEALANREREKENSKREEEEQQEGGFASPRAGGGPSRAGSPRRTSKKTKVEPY

T7: Spacer^Δ655–659 (human, UniProt Q96T88 587-674, Δ655–659)
T7 sequence: T2 sequence with P70S, S71P, A73R

T8: Spacer S639D (human, UniProt Q96T88 587-674, S639D)
T8 sequence: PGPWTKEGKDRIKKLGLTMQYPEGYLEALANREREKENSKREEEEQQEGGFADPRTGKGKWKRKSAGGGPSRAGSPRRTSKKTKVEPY

T9: Spacer S666D (human, UniProt Q96T88 587-674, S666D)
T9 sequence: T8 sequence with D53S, S80D

T10: Spacer R649A (human, UniProt Q96T88 587-674, R649A)
T10 sequence: T8 sequence with D53S, R63A

T11: Spacer S651D (human, UniProt Q96T88 587-674, S651D)
T11 sequence: T8 sequence with D53S, S65D

T12: Spacer K648D (human, UniProt Q96T88 587-674, K648D)
T12 sequence: T8 sequence with D53S, K62D

B1: Spacer of UHRF1 (residues 587–674) (domain or fragment)
chain: T8 sequence with D53S
B2: TTD of UHRF1 (residues 134–285) (domain or fragment)
chain: LYKVNEYVDARDTNMGAWFEAQVVRVTRKAPSRDEPCSSTSRPALEEDVIYHVKYDDYPENGVVQMNSRDVRARARTIIKWQDLEVGQVVMLNYNPDNPKERGFWYDAEISRKRETRTARELYANVVLGDDSLNDCRIIFVDEVFKIERPGE

Experiments:
[1] = target: B2; experiment: ITC; in presence of Linker
[2] = target: B2; experiment: ITC; in presence of Linker (TTD:Linker 1:2)
[3] = target: B2; experiment: ITC
[4] = target: B2; experiment: ITC; phosphorylated S651
[5] = target: T1, SRA–Spacer of UHRF1 (residues 414–674); experiment: ITC
[6] = target: B1; experiment: ITC
[7] = target: T2, Spacer^Δ660–664; experiment: ITC
[8] = target: T3, Spacer^Δ670–674; experiment: ITC
[9] = target: T4, Spacer^Δ650–654; experiment: ITC
[10] = target: T5, Spacer^Δ665–669; experiment: ITC
[11] = target: T6, Spacer^Δ642–651; experiment: ITC
[12] = target: T7, Spacer^Δ655–659; experiment: ITC
[13] = target: T1, SRA–Spacer of UHRF1 (residues 414–674); experiment: ITC; in presence of hm-DNA (1:2)
[14] = target: B1; experiment: ITC; in presence of hm-DNA (1:2)
[15] = target: T8, Spacer S639D; experiment: ITC
[16] = target: T9, Spacer S666D; experiment: ITC
[17] = target: T10, Spacer R649A; experiment: ITC
[18] = target: T11, Spacer S651D; experiment: ITC
[19] = target: T12, Spacer K648D; experiment: ITC

Binder: B1
Kd [1]: 3730 nM
Kd [2]: 3730 nM

Kd [3]: 1260 nM
Binder: TGKGKWKRKSAGGGPSRAGSPRR [unmodified peptide of Spacer^642–664]

Kd [4]: 27800 nM
Binder: TGKGKWKRK[pS]AGGGPSRAGSPRR [peptide of Spacer^642–664 phosphorylated at S651]

Binder: B2
Kd [5]: 820 nM
Kd [6]: 2340 nM
Kd [7]: 2470 nM
Kd [8]: 950 nM
Kd [9]: 3800 nM
Kd [10]: 1850 nM
Kd [11]: 11200 nM
Kd [12]: 2980 nM
Kd [13]: 143000 nM
Kd [14]: 2040 nM
Kd [15]: 1150 nM
Kd [16]: 1260 nM
Kd [17]: 21400 nM
Kd [18]: 8810 nM
Kd [19]: 5940 nM

Kd [3]: 970 nM
Binder: TGKGKWKRKSAGGGPSRAGSPRRTSKKTKVEPY (domain or fragment) [Spacer^642–674]
